The values that follow come from PMC12087451, “The SmWRKY32-SmbHLH65/SmbHLH85 regulatory module mediates tanshinone biosynthesis in Salvia miltiorrhiza”.

In data set [1] the target is T1, GST-SmWRKY32 (Salvia miltiorrhiza, UniProt A0A0D5YAE6 1-129). In words: competition; 50-fold unlabelled mutant competitor; Chemiluminescent EMSA kit (Beyotime GS009) EMSA/Gel-Shift binding buffer, 25 C, 10 min then 20 min with biotin probe, 6% PAGE; salt and pH not stated. Conditions: protein: recombinant; tags: N-terminal GST (pGEX-4T-1); label: none; blunt. A general note: A gel shift assay detects complexes by their altered migration in electrophoresis.

Data set [2] addresses T1, GST-SmWRKY32. In words: EMSA; Chemiluminescent EMSA kit (Beyotime GS009) EMSA/Gel-Shift binding buffer, 25 C, 10 min then 20 min with biotin probe, 6% PAGE; salt and pH not stated. Conditions: protein: recombinant; tags: N-terminal GST (pGEX-4T-1); label: biotin (labelled probe); blunt.

T1 sequence (A0A0D5YAE6 entry or part of it): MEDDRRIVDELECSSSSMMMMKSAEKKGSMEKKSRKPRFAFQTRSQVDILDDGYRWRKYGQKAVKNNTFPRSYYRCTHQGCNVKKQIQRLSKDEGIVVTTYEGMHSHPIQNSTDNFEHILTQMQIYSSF

B1: pSmbHLH65-M cold probe (dsDNA)
DNA 1: TTCAAAAAAAAAATTTCAAAAAAAAAATTTCAAAAAAAAAAT
DNA 2: ATTTTTTTTTTGAAATTTTTTTTTTGAAATTTTTTTTTTGAA
With B1, the binding result in data set [1] is reported as “no binding”.

B2: pSmbHLH65 W-box probe (3 copies) (dsDNA)
DNA 1: TTCATTGACCAAATTTCATTGACCAAATTTCATTGACCAAAT
DNA 2: ATTTGGTCAATGAAATTTGGTCAATGAAATTTGGTCAATGAA
Consider B2, for which the binding result in data set [2] is listed as “binds”.
